Assay results published in PMC6637133, “SPRTN protease and checkpoint kinase 1 cross-activation loop safeguards DNA replication” (Nature Communications, 2019).

Biological target: T1, recombinant His6-tagged SPRTN (human, UniProt Q9H040 1-489)
T1 construct: SPRTN metalloprotease, human; The methods of this pull-down are not described; also called purified SPRTN; source: recombinant, purified in house from E. coli
T1 sequence (looked up): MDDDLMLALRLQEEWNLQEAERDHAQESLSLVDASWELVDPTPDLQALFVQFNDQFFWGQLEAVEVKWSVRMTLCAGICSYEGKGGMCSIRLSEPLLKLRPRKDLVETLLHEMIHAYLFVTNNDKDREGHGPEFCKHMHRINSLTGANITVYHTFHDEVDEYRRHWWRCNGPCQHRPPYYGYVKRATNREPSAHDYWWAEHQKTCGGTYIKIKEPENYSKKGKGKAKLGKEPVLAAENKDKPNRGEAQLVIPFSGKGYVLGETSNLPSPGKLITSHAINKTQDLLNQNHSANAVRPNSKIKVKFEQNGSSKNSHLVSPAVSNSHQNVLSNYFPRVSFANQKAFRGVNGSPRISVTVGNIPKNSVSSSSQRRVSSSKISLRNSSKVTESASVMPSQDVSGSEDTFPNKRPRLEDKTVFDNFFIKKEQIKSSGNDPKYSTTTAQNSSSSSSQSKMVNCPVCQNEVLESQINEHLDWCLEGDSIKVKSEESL
Assay: pull-down; recombinant His6-tagged SPRTN held on Ni-NTA beads, purified CHK1 co-precipitated; immunoblot
Conditions: both partners purified

binding result: binds
B1: Purified CHK1 (enzyme, human, UniProt O14757 1-476, looked up)
chain: MAVPFVEDWDLVQTLGEGAYGEVQLAVNRVTEEAVAVKIVDMKRAVDCPENIKKEICINKMLNHENVVKFYGHRREGNIQYLFLEYCSGGELFDRIEPDIGMPEPDAQRFFHQLMAGVVYLHGIGITHRDIKPENLLLDERDNLKISDFGLATVFRYNNRERLLNKMCGTLPYVAPELLKRREFHAEPVDVWSCGIVLTAMLAGELPWDQPSDSCQEYSDWKEKKTYLNPWKKIDSAPLALLHKILVENPSARITIPDIKKDRWYNKPLKKGAKRPRVTSGGVSESPSGFSKHIQSNLDFSPVNSASSEENVKYSSSQPEPRTGLSLWDTSPSYIDKLVQGISFSQPTCPDHMLLNSQLLGTPGSSQNPWQRLVKRMTRFFTKLDADKSYQCLKETCEKLGYQWKKSCMNQVTISTTDRRNNKLIFKVNLLEMDDKILVDFRLSKGDGLEFKRHFLKIKGKLIDIVSSQKIWLPAT
notes: checkpoint kinase 1 (CHK1), human
